# Source: IntAct's records for PubMed 31515488
# B1: Glycolipid transfer protein (Homo sapiens), Q9NZD2 (parent)
# chain: MALLAEHLLKPLPADKQIETGPFLEAVSHLPPFFDCLGSPVFTPIKADISGNITKIKAVYDTNPAKFRTLQNILEVEKEMYGAEWPKVGATLALMWLKRGLRFIQVFLQSICDGERDENHPNLIRVNATKAYEMALKKYHGWIVQKIFQAALYAAPYKSDFLKALSKGQNVTEEECLEKIRLFLVNYTATIDVIYEMYTQMNAELNYKV
# partner: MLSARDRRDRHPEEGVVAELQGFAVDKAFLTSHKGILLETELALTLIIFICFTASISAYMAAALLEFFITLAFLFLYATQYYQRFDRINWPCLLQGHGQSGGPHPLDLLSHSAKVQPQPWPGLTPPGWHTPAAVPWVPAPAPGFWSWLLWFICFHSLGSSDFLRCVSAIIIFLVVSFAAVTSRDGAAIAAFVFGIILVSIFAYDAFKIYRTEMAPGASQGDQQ
# B2: Protein transport protein (Homo sapiens), Q15437 (parent)
# chain: MATYLEFIQQNEERDGVRFSWNVWPSSRLEATRMVVPLACLLTPLKERPDLPPVQYEPVLCSRPTCKAVLNPLCQVDYRAKLWACNFCFQRNQFPPAYGGISEVNQPAELMPQFSTIEYVIQRGAQSPLIFLYVVDTCLEEDDLQALKESLQMSLSLLPPDALVGLITFGRMVQVHELSCEGISKSYVFRGTKDLTAKQIQDMLGLTKPAMPMQQARPAQPQEHPFASSRFLQPVHKIDMNLTDLLGELQRDPWPVTQGKRPLRSTGVALSIAVGLLEGTFPNTGARIMLFTGGPPTQGPGMVVGDELKIPIRSWHDIEKDNARFMKKATKHYEMLANRTAANGHCIDIYACALDQTGLLEMKCCANLTGGYMVMGDSFNTSLFKQTFQRIFTKDFNGDFRMAFGATLDVKTSRELKIAGAIGPCVSLNVKGPCVSENELGVGGTSQWKICGLDPTSTLGIYFEVVNQHNTPIPQGGRGAIQFVTHYQHSSTQRRIRVTTIARNWADVQSQLRHIEAAFDQEAAAVLMARLGVFRAESEEGPDVLRWLDRQLIRLCQKFGQYNKEDPTSFRLSDSFSLYPQFMFHLRRSPFLQVFNNSPDESSYYRHHFARQDLTQSLIMIQPILYSYSFHGPPEPVLLDSSSILADRILLMDTFFQIVIYLGETIAQWRKAGYQDMPEYENFKHLLQAPLDDAQEILQARFPMPRYINTEHGGSQARFLLSKVNPSQTHNNLYAWGQETGAPILTDDVSLQVFMDHLKKLAVSSAC
# partner: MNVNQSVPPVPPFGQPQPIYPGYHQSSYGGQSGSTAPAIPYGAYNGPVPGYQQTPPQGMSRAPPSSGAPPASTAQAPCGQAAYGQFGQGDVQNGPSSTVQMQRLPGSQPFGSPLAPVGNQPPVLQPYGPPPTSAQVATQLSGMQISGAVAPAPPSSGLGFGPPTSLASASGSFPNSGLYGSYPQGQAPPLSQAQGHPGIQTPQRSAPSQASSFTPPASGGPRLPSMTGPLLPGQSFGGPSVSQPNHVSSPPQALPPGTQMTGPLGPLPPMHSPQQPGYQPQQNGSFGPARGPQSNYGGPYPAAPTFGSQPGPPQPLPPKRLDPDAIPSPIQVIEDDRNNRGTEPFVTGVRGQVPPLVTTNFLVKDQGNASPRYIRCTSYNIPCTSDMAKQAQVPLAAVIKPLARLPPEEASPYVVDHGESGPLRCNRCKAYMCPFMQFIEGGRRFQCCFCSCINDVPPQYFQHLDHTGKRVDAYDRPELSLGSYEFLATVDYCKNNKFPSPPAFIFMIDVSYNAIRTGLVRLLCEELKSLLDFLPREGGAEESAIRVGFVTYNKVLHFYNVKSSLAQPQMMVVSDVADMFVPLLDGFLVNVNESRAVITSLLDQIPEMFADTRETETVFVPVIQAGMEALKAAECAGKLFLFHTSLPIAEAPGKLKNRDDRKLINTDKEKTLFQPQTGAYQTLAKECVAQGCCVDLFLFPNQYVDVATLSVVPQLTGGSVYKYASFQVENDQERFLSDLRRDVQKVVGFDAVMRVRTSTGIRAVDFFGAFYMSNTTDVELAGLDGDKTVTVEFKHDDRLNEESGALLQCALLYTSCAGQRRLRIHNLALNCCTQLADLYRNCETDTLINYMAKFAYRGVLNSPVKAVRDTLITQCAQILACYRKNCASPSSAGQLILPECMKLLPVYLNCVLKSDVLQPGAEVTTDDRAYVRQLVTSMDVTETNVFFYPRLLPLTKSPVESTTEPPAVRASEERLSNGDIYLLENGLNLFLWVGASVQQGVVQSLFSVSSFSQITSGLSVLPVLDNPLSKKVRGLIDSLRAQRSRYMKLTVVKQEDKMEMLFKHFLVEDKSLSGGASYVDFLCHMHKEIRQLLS
# B3: Zinc finger protein RFP (Homo sapiens), P14373 (parent)
# chain: MASGSVAECLQQETTCPVCLQYFAEPMMLDCGHNICCACLARCWGTAETNVSCPQCRETFPQRHMRPNRHLANVTQLVKQLRTERPSGPGGEMGVCEKHREPLKLYCEEDQMPICVVCDRSREHRGHSVLPLEEAVEGFKEQIQNQLDHLKRVKDLKKRRRAQGEQARAELLSLTQMEREKIVWEFEQLYHSLKEHEYRLLARLEELDLAIYNSINGAITQFSCNISHLSSLIAQLEEKQQQPTRELLQDIGDTLSRAERIRIPEPWITPPDLQEKIHIFAQKCLFLTESLKQFTEKMQSDMEKIQELREAQLYSVDVTLDPDTAYPSLILSDNLRQVRYSYLQQDLPDNPERFNLFPCVLGSPCFIAGRHYWEVEVGDKAKWTIGVCEDSVCRKGGVTSAPQNGFWAVSLWYGKEYWALTSPMTALPLRTPLQRVGIFLDYDAGEVSFYNVTERCHTFTFSHATFCGPVRPYFSLSYSGGKSAAPLIICPMSGIDGFSGHVGNHGHSMETSP
# partner: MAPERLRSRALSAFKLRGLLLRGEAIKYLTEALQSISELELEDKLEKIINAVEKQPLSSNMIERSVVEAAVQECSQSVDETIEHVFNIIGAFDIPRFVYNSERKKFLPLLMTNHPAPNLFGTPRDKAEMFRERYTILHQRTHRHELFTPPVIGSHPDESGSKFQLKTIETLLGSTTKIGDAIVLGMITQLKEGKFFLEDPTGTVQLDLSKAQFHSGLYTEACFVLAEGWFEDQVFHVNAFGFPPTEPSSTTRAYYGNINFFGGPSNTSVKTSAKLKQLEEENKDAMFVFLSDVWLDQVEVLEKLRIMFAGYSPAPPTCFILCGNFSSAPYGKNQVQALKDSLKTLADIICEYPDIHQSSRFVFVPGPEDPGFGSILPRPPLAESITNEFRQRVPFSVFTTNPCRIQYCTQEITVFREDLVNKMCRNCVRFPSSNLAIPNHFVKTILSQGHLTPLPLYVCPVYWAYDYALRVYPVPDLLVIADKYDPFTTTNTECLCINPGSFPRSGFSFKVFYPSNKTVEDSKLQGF
# B4: Notch homolog 2 N-terminal-like protein A (Homo sapiens), Q7Z3S9 (parent)
# chain: MCVTYHNGTGYCKCPEGFLGEYCQHRDPCEKNRCQNGGTCVAQAMLGKATCRCASGFTGEDCQYSTSHPCFVSRPCLNGGTCHMLSRDTYECTCQVGFTGKECQWTDACLSHPCANGSTCTTVANQFSCKCLTGFTGQKCETDVNECDIPGHCQHGGTCLNLPGSYQCQCLQGFTGQYCDSLYVPCAPSPCVNGGTCRQTGDFTFECNCLPETVRRGTELWERDREVWNGKEHDEN
# partner: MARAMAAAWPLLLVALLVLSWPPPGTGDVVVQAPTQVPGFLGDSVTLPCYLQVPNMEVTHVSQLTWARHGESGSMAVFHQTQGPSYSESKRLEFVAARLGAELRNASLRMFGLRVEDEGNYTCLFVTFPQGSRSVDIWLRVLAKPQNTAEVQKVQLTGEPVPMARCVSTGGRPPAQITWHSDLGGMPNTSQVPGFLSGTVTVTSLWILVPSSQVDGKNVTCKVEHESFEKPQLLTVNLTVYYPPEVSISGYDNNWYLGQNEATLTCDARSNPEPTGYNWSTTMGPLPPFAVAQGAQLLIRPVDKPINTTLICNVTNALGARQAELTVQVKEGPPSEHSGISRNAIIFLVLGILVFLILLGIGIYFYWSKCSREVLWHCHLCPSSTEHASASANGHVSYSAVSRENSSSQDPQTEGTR
# B5: Prolyl 4-hydroxylase subunit alpha-3 (Homo sapiens), Q7Z4N8 (parent)
# chain: MGPGARLAALLAVLALGTGDPERAAARGDTFSALTSVARALAPERRLLGLLRRYLRGEEARLRDLTRFYDKVLSLHEDSTTPVANPLLAFTLIKRLQSDWRNVVHSLEASENIRALKDGYEKVEQDLPAFEDLEGAARALMRLQDVYMLNVKGLARGVFQRVTGSAITDLYSPKRLFSLTGDDCFQVGKVAYDMGDYYHAIPWLEEAVSLFRGSYGEWKTEDEASLEDALDHLAFAYFRAGNVSCALSLSREFLLYSPDNKRMARNVLKYERLLAESPNHVVAEAVIQRPNIPHLQTRDTYEGLCQTLGSQPTLYQIPSLYCSYETNSNAYLLLQPIRKEVIHLEPYIALYHDFVSDSEAQKIRELAEPWLQRSVVASGEKQLQVEYRISKSAWLKDTVDPKLVTLNHRIAALTGLDVRPPYAEYLQVVNYGIGGHYEPHFDHATSPSSPLYRMKSGNRVATFMIYLSSVEAGGATAFIYANLSVPVVRNAALFWWNLHRSGEGDSDTLHAGCPVLVGDKWVANKWIHEYGQEFRRPCSSSPED
# B6: Zinc finger protein 488 (Homo sapiens), Q96MN9 (parent)
# chain: MPEWPPCLSVAPALVITMAAGKGAPLSPSAENRWRLSEPELGRGCKPVLLEKTNRLGPEAAVGRAGRDVGSAELALLVAPGKPRPGKPLPPKTRGEQRQSAFTELPRMKDRQVDAQAQEREHDDPTGQPGAPQLTQNIPRGPAGSKVFSVWPSGARSEQRSAFSKPTKRPAERPELTSVFPAGESADALGELSGLLNTTDLACWGRLSTPKLLVGDLWNLQALPQNAPLCSTFLGAPTLWLEHTQAQVPPPSSSSTTSWALLPPTLTSLGLSTQNWCAKCNLSFRLTSDLVFHMRSHHKKEHAGPDPHSQKRREEALACPVCQEHFRERHHLSRHMTSHS
# Variants of: B1
# Conditions: with cklf5_human CMTM5, Q96DZ9
row,effect of a mutation on the interaction,Variant
1,with no effect,R68Q
2,with no effect,R116Q

# Variants of: B2
# Conditions: with sc24c_human SEC24C
row,effect of a mutation on the interaction,Variant
1,with no effect,V426I

# Variants of: B3
# Conditions: with dpoe2_human POLE2, P56282
row,effect of a mutation on the interaction,Variant
1,with no effect,N355S

# Variants of: B4
# Conditions: with pvr_human PVR
row,effect of a mutation on the interaction,Variant
1,with no effect,A115T
2,with no effect,R74Q

# Variants of: B5
# Conditions: with maga2_human MAGEA2, P43356
# Sequence of maga2_human MAGEA2, P43356 (P43356 whole entry): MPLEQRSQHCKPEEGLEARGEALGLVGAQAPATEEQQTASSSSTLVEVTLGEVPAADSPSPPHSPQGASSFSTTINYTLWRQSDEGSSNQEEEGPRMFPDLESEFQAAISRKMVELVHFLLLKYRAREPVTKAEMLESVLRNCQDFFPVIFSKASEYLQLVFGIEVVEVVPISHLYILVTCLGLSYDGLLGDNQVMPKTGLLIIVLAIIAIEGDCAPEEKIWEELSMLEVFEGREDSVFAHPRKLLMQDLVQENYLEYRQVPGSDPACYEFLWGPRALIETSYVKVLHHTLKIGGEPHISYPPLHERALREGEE
row,effect of a mutation on the interaction,Variant
1,disrupting interaction strength,S378L

# Variants of: B5
# Conditions: with nutm1_human NUTM1, Q86Y26
# Sequence of nutm1_human NUTM1, Q86Y26 (Q86Y26 whole entry): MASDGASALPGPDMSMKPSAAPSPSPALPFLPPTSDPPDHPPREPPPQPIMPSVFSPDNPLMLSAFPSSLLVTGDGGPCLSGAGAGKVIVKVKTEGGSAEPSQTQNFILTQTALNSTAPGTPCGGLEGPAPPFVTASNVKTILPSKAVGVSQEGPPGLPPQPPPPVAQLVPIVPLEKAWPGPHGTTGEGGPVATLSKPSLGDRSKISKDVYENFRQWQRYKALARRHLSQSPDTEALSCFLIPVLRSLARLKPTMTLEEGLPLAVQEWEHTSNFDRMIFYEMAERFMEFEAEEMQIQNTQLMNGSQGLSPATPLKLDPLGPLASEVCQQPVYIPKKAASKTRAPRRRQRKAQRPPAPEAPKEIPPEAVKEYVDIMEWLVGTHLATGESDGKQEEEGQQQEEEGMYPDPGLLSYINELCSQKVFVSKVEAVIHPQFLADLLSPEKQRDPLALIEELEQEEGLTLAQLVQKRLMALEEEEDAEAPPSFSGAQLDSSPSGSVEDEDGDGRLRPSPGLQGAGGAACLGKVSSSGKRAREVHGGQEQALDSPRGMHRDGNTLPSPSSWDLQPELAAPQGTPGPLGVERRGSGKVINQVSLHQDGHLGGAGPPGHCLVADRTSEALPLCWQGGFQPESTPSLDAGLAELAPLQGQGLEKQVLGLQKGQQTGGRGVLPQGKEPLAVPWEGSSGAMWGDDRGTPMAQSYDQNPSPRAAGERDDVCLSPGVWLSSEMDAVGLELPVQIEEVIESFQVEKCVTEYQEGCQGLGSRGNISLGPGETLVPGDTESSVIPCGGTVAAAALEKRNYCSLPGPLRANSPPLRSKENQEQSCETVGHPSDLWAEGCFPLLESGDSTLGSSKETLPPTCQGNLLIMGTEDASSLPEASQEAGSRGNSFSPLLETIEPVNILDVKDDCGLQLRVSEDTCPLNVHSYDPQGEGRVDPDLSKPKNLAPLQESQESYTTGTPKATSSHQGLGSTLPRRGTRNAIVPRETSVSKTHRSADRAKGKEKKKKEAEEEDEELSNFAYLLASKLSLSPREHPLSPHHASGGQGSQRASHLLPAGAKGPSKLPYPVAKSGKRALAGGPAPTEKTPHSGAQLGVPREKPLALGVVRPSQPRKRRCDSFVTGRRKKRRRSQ
row,effect of a mutation on the interaction,Variant
1,disrupting interaction strength,S378L

# Variants of: B6
# Conditions: with rbpms_human RBPMS
row,effect of a mutation on the interaction,Variant
1,with no effect,C230R
2,with no effect,A72V
